3 variants from IntAct's records for PubMed 34927784 can be followed below.

Sequences and labels used below:
B1: Endosomal transmembrane epsin interactor 1 (Homo sapiens), Q15884 (parent)
chain: MILLVNLFVLLSVVCVLLNLAGFILGCQGAQFVSSVPRCDLVDLGEGKICFCCEEFQPAKCTDKENALKLFPVQPCSAVHLLLKKVLFALCALNALTTTVCLVAAALRYLQIFATRRSCIDESQISAEEAEDHGRIPDPDDFVPPVPPPSYFATFYSCTPRMNRRMVGPDVIPLPHIYGARIKGVEVFCPLDPPPPYEAVVSQMDQEQGSSFQMSEGSEAAVIPLDLGCTQVTQDGDIPNIPAEENASTSTPSSTLVRPIRSRRALPPLRTRSKSDPVLHPSEERAAPVLSCEAATQTERRLDLAAVTLRRGLRSRASRCRPRSLIDYKSYMDTKLLVARFLEQSSCTMTPDIHELVENIKSVLKSDEEHMEEAITSASFLEQIMAPLQPSTSRAHKLPSRRQPGLLHLQSCGDLHTFTPAGRPRAERRPRRVEAERPHSLIGVIRETVL

In assay [1] the parent is B1. As to conditions: with ITCH.
In the assay “epn1_human EPN1, Q9Y6I3” the parent is B1. The following applies: with epn1_human EPN1, Q9Y6I3.
Assay [2] covers variants of B1. The following applies: with ITCH. This is another data set of the same source.
Assay [3] covers variants of B1. The following applies: with ITCH. The source holds these as a separate data set.

ITCH, Q96J02-2, sequence (Q96J02 other isoform, or with tags, fused parts or gaps): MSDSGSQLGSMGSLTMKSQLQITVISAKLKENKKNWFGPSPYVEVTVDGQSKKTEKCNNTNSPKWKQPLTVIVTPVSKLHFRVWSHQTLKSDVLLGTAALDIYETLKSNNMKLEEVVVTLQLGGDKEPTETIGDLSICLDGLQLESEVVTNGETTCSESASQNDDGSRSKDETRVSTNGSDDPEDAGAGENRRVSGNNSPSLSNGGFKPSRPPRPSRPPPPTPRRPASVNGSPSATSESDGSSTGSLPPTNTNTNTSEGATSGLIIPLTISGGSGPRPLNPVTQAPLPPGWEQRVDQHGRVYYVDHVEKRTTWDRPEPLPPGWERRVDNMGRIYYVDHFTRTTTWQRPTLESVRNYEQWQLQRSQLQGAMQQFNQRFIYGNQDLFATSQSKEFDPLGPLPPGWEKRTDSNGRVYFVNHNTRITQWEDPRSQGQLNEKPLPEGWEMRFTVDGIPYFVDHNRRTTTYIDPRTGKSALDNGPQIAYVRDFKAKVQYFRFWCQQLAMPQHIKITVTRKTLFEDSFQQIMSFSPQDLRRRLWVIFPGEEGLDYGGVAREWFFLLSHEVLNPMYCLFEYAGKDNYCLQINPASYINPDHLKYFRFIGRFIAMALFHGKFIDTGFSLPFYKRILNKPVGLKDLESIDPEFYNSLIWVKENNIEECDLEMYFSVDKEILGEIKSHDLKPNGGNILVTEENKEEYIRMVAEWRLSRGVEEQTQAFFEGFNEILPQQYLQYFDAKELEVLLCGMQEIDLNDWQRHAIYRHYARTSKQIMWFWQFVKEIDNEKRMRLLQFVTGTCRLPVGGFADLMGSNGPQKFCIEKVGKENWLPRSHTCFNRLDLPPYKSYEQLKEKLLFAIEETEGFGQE
epn1_human EPN1, Q9Y6I3, sequence (Q9Y6I3 whole entry): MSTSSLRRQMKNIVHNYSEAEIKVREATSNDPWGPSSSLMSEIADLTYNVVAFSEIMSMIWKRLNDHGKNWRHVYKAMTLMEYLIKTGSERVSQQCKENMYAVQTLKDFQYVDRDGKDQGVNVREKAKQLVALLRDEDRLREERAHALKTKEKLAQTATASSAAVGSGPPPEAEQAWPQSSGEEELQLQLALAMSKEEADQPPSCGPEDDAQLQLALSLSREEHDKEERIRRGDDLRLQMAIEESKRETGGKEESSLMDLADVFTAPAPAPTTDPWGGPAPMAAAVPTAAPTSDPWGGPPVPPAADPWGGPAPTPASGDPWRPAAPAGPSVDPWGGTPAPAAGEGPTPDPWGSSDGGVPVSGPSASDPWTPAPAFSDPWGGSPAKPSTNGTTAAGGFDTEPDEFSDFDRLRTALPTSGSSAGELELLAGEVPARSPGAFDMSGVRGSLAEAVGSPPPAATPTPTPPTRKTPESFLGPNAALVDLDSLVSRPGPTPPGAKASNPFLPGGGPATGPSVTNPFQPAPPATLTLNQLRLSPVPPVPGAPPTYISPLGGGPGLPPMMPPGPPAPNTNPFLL

Regarding Y151A;Y197A, the “effect of a mutation on the interaction” value was “decreasing interaction strength” with ITCH, Q96J02-2 [1]; “with no effect” with epn1_human EPN1, Q9Y6I3; “with no effect” in the assay with ITCH, Q96J02-2 [2]; “disrupting interaction strength” with ITCH, Q96J02-2 [3].

Take Y197A: in the assay with ITCH, Q96J02-2 [1], the “effect of a mutation on the interaction” value is “decreasing interaction strength”.

Y151A: in the assay with ITCH, Q96J02-2 [1], the “effect of a mutation on the interaction” value is listed as “with no effect”.
